The values below come from article PMC4519192, “In vitro Selection and Interaction Studies of a DNA Aptamer Targeting Protein A”.

For series [1], the target named is T1, Protein A, native biotinylated (Sigma P2165) (Staphylococcus aureus, UniProt P38507 37-477). Nature of the series: SPR; steady state; Protein A immobilized ~600 RU. To be noted: tags: biotin, label: 5'-fluorescein. On the technique in general: SPR reads the build-up and loss of mass on a sensor chip optically.
Series [2] has as its target T2, Protein A, recombinant (Sigma P7837) (UniProt P38507 37-327). Description: MST; 25 C, in solution. Conditions: protein: recombinant, label: 5'-fluorescein.
In series [3] the target is T3, Protein A, native (Sigma P3838) (Staphylococcus aureus, UniProt P38507 37-477). Description: MST; 25 C, in solution. Conditions: protein: native, label: 5'-fluorescein.
Series [4] has as its target T2, Protein A, recombinant (Sigma P7837). Description: SPR; steady state; aptamer immobilized 1030 RU. To be noted: label: 3'-biotin, predicted stem-loop.
The target of series [5] is T1, Protein A, native biotinylated (Sigma …). Nature of the series: bead-based fluorescence binding. Conditions: tags: biotin, label: 5'-fluorescein.
Series [6] has the same target. Nature of the series: SPR; kinetic 1:1 fit; ka 1.23e3 M-1s-1, kd 1.66e-3 s-1. To be noted: tags: biotin, label: 5'-fluorescein.
Series [7] shares this target. Nature of the series: bead-based fluorescence binding; Protein A on streptavidin beads. To be noted: tags: biotin, label: 5'-fluorescein.
Series [8] concerns the target human thrombin (89223 Fluka) (human, UniProt P00734;P00734 328-363;364-622). Nature of the series: SPR.
The target of series [9] is T3, Protein A, native (Sigma P3838). Nature of the series: SPR; steady state; aptamer immobilized 1158 RU; avidity. To be noted: label: 3'-biotin.
Series [10] has as its target T2, Protein A, recombinant (Sigma P7837). Nature of the series: SPR; steady state; aptamer immobilized 1086 RU; avidity. Conditions: label: 3'-biotin.
In series [11] the target is Protein G, recombinant (Pierce 21193) (group G Streptococci, UniProt P06654 228-352). Description: SPR; 1000 nM protein. Conditions: label: 3'-biotin, predicted stem-loops, possible G4.
Series [12] concerns the target T2, Protein A, recombinant (Sigma P7837). Nature of the series: SPR; single-cycle mode; aptamer 516 RU. Conditions: label: 3'-biotin.

Protein G, recombinant (Pierce 21193), sequence (P06654 228-352): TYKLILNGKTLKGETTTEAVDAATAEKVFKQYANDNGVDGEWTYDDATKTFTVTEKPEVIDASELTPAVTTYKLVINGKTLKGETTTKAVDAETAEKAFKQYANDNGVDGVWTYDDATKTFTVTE

B1: PA#2/8[S1-58] 5'-fluorescein (structured_DNA)
DNA: ATACCAGCTTATTCAATTAGCAACATGAGGGGGATAGAGGGGGTGGGTTCTCTCGGCT
As to B1, the Kd was 1.92 ± 0.25 µM in [1] (predicted stem-loop), 0.0947 ± 0.0646 µM in series [2] (predicted stem-loop) and 0.222 ± 0.0605 µM in series [3] (predicted stem-loop).

B2: PA#2/8[S1-58] 3'-biotin (structured_DNA)
DNA: ATACCAGCTTATTCAATTAGCAACATGAGGGGGATAGAGGGGGTGGGTTCTCTCGGCT
In the case of B2, the Kd in [4] is 0.287 ± 0.0162 µM.

B3: PA#2/8[S1-35] (structured_DNA)
DNA: ATACCAGCTTATTCAATTAGCAACATGAGGGGGAT
For the molecule B3, the binding result in series [5] is “no binding”.

B4: PA#2/8[S19-76] (structured_DNA)
DNA: AGCAACATGAGGGGGATAGAGGGGGTGGGTTCTCTCGGCTACAATCGTAATCAGTTAG
Consider B4, for which the binding result in [5] was “no binding”.

B5: PA#2/8[S1-28] (structured_DNA)
DNA: ATACCAGCTTATTCAATTAGCAACATGA
Turning to B5, the binding result in series [5] is on record as “no binding”.

B6: PA#2/8KR23 (structured_DNA)
DNA: GATAGAGGGGGTGGGTTCTCTCG
Regarding B6, the binding result in series [5] is recorded as “no binding”.

B7: PA#2/8KR40 (structured_DNA)
DNA: AGCAACATGAGGGGGATAGAGGGGGTGGGTTCTCTCGGCT
Turning to B7, the binding result in series [5] is reported as “no binding”.

B8: PA#2/8 5'-fluorescein (structured_DNA)
DNA: ATACCAGCTTATTCAATTAGCAACATGAGGGGGATAGAGGGGGTGGGTTCTCTCGGCTACAATCGTAATCAGTTAG
For B8, the Kd in series [1] stood at 2.22 ± 0.18 µM; in series [6], 1.35 µM; in series [2], 0.927 ± 0.404 µM; in [3] it was 0.668 ± 0.225 µM; in series [7], 1.06 ± 0.2 µM.

B9: PA#2/8 3'-biotin (structured_DNA)
DNA: ATACCAGCTTATTCAATTAGCAACATGAGGGGGATAGAGGGGGTGGGTTCTCTCGGCTACAATCGTAATCAGTTAG
On to B9, for which the binding result in [8] and in series [11] was “no binding” in each case. Moreover, the values for the Kd in series [9], in series [10] and in series [12] were 0.084 ± 0.005 µM, 0.172 ± 0.014 µM and 0.148 ± 0.0076 µM, respectively.

B10: PA#2/8[S1-43] (structured_DNA)
DNA: ATACCAGCTTATTCAATTAGCAACATGAGGGGGATAGAGGGGG
In the case of B10, the Kd was 0.579 ± 0.123 µM in series [2] (predicted stem-loop) and 0.214 ± 0.0461 µM in series [3] (predicted stem-loop).
